Article PMC9482650, “Quantitative fragmentomics allow affinity mapping of interactomes” (Nature Communications, 2022)
Values belong to the binder of their own block, whether it stands above or below them.

How the values were obtained:
Assay in all cases: holdup assay
Parameters in all cases: key: below the threshold = too weak to quantify, mostly under pKd 3.1 to 4
GRID2IP_2, A4D2P6 = molecular target: GRID2IP_2, A4D2P6
GRID2IP_1, A4D2P6 = molecular target: GRID2IP_1, A4D2P6
MAST1, Q9Y2H9 = molecular target: MAST1, Q9Y2H9
GRIP2_7, Q9C0E4 = molecular target: GRIP2_7, Q9C0E4
SYNJ2BP, P57105 = molecular target: T1, SYNJ2BP, P57105
T1 sequence (P57105 8-110, limits assumed, looked up): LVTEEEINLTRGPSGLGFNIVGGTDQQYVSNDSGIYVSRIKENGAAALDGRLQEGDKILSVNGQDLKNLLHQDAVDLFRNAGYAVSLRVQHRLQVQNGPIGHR

NHERF2_2, Q15599 = molecular target: NHERF2_2, Q15599
HTRA2, O43464 = molecular target: HTRA2, O43464
HTRA3, P83110 = molecular target: T2, HTRA3, P83110
T2 sequence (P83110 354-453, limits assumed, looked up): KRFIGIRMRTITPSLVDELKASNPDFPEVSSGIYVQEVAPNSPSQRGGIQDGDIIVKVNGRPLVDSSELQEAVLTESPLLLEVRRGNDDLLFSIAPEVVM

FRMPD2_2, Q68DX3 = molecular target: FRMPD2_2, Q68DX3
MPDZ_12, O75970 = molecular target: T3, MPDZ_12, O75970
T3 sequence (O75970 1857-1958, limits assumed, looked up): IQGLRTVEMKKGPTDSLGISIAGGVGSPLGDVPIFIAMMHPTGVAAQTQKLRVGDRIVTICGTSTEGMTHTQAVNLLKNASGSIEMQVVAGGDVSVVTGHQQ

GORASP2, Q9H8Y8 = molecular target: GORASP2, Q9H8Y8
GRIP2_5, Q9C0E4 = molecular target: GRIP2_5, Q9C0E4
SCRIB_1, Q14160 = molecular target: SCRIB_1, Q14160
LDB3, O75112 = molecular target: LDB3, O75112
DLG1_3, Q12959 = molecular target: DLG1_3, Q12959
SNTA1, Q13424 = molecular target: T4, SNTA1, Q13424
T4 sequence (Q13424 82-180, limits assumed, looked up): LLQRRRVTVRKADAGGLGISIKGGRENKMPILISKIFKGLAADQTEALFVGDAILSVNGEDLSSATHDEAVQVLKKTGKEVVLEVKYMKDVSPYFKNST

CARD11, Q9BXL7 = molecular target: T5, CARD11, Q9BXL7
T5 sequence (Q9BXL7 662-765, limits assumed, looked up): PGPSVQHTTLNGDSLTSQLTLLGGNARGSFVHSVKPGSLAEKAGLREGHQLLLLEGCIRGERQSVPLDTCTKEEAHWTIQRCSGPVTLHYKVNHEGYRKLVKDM

SNTG2, Q9NY99 = molecular target: T6, SNTG2, Q9NY99
T6 sequence (Q9NY99 68-166, limits assumed, looked up): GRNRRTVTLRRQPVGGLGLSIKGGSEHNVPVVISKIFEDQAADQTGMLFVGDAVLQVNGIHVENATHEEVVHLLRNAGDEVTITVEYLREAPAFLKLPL

MAGI2_2, Q86UL8 = molecular target: MAGI2_2, Q86UL8
APBA3_1, O96018 = molecular target: T7, APBA3_1, O96018
T7 sequence (O96018 389-490, limits assumed, looked up): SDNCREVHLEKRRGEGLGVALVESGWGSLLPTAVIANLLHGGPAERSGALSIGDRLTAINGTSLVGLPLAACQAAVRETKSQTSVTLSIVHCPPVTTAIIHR

DLG4_3, P78352 = molecular target: DLG4_3, P78352
GORASP1, Q9BQQ3 = molecular target: GORASP1, Q9BQQ3
DLG2_2, Q15700 = molecular target: DLG2_2, Q15700
AHNAK1, Q09666 = molecular target: AHNAK1, Q09666
LIN7C, Q9NUP9 = molecular target: T8, LIN7C, Q9NUP9
T8 sequence (Q9NUP9 88-185, limits assumed, looked up): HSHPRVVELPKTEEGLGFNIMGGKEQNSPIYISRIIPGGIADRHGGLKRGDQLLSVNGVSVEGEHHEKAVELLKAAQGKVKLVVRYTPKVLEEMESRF

GRIP1_7, Q9Y3R0 = molecular target: T9, GRIP1_7, Q9Y3R0
T9 sequence (Q9Y3R0 999-1096, limits assumed, looked up): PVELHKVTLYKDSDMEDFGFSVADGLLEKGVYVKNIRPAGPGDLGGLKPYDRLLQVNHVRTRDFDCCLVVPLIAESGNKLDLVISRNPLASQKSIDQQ

MAGI2_5, Q86UL8 = molecular target: MAGI2_5, Q86UL8
TIAM2, Q8IVF5 = molecular target: T10, TIAM2, Q8IVF5
T10 sequence (Q8IVF5 885-986, limits assumed, looked up): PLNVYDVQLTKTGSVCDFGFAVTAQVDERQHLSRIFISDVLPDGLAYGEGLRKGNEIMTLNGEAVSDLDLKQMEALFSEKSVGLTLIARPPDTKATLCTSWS

[1] = plain residues with an end cap or a label only (N-terminal biotin on a linker: ado-ado)
[2] = plain residues with an end cap or a label only (N-terminal biotin on a linker: ttds)

Chain of GORASP1, Q9BQQ3 (Q9BQQ3 1-208): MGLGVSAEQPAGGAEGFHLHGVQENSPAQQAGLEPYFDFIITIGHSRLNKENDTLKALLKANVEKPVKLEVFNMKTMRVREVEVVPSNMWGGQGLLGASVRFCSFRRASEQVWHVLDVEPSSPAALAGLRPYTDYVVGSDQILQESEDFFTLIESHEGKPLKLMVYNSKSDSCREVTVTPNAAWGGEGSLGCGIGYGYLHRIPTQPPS
Chain of LDB3, O75112 (O75112 1-94): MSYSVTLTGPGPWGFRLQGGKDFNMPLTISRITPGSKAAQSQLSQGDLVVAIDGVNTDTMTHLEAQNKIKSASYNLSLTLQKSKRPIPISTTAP
Chain of NHERF2_2, Q15599 (Q15599 142-238): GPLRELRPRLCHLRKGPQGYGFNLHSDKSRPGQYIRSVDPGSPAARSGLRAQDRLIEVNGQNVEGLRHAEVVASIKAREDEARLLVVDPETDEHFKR
Chain of SCRIB_1, Q14160 (Q14160 718-814): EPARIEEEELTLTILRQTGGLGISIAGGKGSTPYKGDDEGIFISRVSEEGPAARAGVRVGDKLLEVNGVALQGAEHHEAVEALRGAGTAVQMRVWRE
Chain of MAGI2_2, Q86UL8 (Q86UL8 410-522): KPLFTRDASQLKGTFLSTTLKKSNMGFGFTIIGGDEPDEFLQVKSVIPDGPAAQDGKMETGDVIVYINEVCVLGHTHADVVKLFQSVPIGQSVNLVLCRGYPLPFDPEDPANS
Chain of DLG2_2, Q15700 (Q15700 189-283): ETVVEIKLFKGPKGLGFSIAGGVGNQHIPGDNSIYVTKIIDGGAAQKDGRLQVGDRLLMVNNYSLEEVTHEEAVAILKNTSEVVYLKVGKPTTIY
Chain of FRMPD2_2, Q68DX3 (Q68DX3 944-1038): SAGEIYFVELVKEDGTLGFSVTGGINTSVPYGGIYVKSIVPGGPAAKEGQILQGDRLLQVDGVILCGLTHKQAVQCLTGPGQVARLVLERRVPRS
Chain of DLG1_3, Q12959 (Q12959 457-571): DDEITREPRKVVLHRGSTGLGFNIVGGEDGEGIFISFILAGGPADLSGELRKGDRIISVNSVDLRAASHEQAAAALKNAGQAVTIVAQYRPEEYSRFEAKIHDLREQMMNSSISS
Chain of HTRA2, O43464 (O43464 355-458): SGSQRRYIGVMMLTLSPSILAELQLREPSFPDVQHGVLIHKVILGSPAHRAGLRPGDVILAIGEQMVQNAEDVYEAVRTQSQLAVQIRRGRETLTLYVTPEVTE
Chain of MAST1, Q9Y2H9 (Q9Y2H9 962-1065): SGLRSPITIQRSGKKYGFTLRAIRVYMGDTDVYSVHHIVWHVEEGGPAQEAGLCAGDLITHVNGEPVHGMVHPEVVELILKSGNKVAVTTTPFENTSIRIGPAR
Chain of DLG4_3, P78352 (P78352 306-403): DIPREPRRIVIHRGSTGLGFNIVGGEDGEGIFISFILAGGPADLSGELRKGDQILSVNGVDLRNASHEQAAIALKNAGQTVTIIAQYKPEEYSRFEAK
Chain of GRIP2_5, Q9C0E4 (Q9C0E4 544-642): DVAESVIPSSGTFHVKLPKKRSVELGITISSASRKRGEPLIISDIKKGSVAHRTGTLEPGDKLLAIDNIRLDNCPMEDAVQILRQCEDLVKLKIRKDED
Chain of GRID2IP_1, A4D2P6 (A4D2P6 1-87): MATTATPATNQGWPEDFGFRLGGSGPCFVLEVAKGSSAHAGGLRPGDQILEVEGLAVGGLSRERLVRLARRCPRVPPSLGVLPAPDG
Chain of MAGI2_5, Q86UL8 (Q86UL8 915-1017): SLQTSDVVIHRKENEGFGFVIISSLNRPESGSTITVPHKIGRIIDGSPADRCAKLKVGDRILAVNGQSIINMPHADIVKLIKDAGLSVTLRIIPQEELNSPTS
Chain of GRID2IP_2, A4D2P6 (A4D2P6 272-370): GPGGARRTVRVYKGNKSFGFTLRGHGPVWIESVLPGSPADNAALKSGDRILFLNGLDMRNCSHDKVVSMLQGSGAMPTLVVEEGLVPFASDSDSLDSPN
Chain of GRIP2_7, Q9C0E4 (Q9C0E4 934-1023): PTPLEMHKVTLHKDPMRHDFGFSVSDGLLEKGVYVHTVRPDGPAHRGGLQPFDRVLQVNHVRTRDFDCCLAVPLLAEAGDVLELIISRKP
Chain of AHNAK1, Q09666 (Q09666 4-100): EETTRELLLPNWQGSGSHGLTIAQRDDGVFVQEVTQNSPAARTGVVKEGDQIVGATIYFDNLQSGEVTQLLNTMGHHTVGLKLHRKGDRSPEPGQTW

pKd (GRID2IP_2, A4D2P6; [1]): 3.98 | pKd (GRID2IP_1, A4D2P6; [1]): 3.97 | pKd (MAST1, Q9Y2H9; [1]): 4.85 | pKd (GRIP2_7, Q9C0E4; [1]): below the threshold | pKd (SYNJ2BP, P57105; [1]): below the threshold | pKd (NHERF2_2, Q15599; [1]): 4.16 | pKd (HTRA2, O43464; [1]): below the threshold | pKd (HTRA3, P83110; [1]): below the threshold | pKd (FRMPD2_2, Q68DX3; [1]): 3.93 | pKd (MPDZ_12, O75970; [1]): 3.82 | pKd (GORASP2, Q9H8Y8; [1]): 4.17 | pKd (GRIP2_5, Q9C0E4; [1]): below the threshold | pKd (SCRIB_1, Q14160; [1]): 3.99 | pKd (LDB3, O75112; [1]): below the threshold | pKd (DLG1_3, Q12959; [1]): below the threshold | pKd (SNTA1, Q13424; [1]): 4 | pKd (CARD11, Q9BXL7; [1]): below the threshold | pKd (SNTG2, Q9NY99; [1]): 3.82 | pKd (MAGI2_2, Q86UL8; [1]): 3.48 | pKd (APBA3_1, O96018; [1]): below the threshold | pKd (DLG4_3, P78352; [1]): below the threshold | pKd (GORASP1, Q9BQQ3; [1]): 3.87 | pKd (DLG2_2, Q15700; [1]): 3.99 | pKd (AHNAK1, Q09666; [1]): below the threshold | pKd (LIN7C, Q9NUP9; [1]): 4.08 | pKd (GRIP1_7, Q9Y3R0; [1]): below the threshold | pKd (MAGI2_5, Q86UL8; [1]): 4.46 | pKd (TIAM2, Q8IVF5; [1]): below the threshold
Binder: TETASVCTKV [SLC23A1, Q9UHI7]

pKd (GRID2IP_2, A4D2P6; [2]): 4.24 | pKd (GRID2IP_1, A4D2P6; [2]): below the threshold | pKd (MAST1, Q9Y2H9; [2]): 4.32 | pKd (GRIP2_7, Q9C0E4; [2]): 3.55 | pKd (SYNJ2BP, P57105; [2]): 3.68 | pKd (NHERF2_2, Q15599; [2]): 3.6 | pKd (HTRA2, O43464; [2]): below the threshold | pKd (HTRA3, P83110; [2]): below the threshold | pKd (FRMPD2_2, Q68DX3; [2]): below the threshold | pKd (MPDZ_12, O75970; [2]): below the threshold | pKd (GORASP2, Q9H8Y8; [2]): below the threshold | pKd (GRIP2_5, Q9C0E4; [2]): below the threshold | pKd (SCRIB_1, Q14160; [2]): 4.02 | pKd (LDB3, O75112; [2]): below the threshold | pKd (DLG1_3, Q12959; [2]): 3.52 | pKd (SNTA1, Q13424; [2]): below the threshold | pKd (CARD11, Q9BXL7; [2]): below the threshold | pKd (SNTG2, Q9NY99; [2]): 3.7 | pKd (MAGI2_2, Q86UL8; [2]): 3.59 | pKd (APBA3_1, O96018; [2]): below the threshold | pKd (DLG4_3, P78352; [2]): below the threshold | pKd (GORASP1, Q9BQQ3; [2]): 3.56 | pKd (DLG2_2, Q15700; [2]): below the threshold | pKd (AHNAK1, Q09666; [2]): 3.53 | pKd (LIN7C, Q9NUP9; [2]): 3.66 | pKd (GRIP1_7, Q9Y3R0; [2]): below the threshold | pKd (MAGI2_5, Q86UL8; [2]): below the threshold | pKd (TIAM2, Q8IVF5; [2]): below the threshold
Binder: DPRNTQTSQI [ABRAXAS2, Q15018]
